Measurements from PMC6335420, “The cell cycle regulator GpsB functions as cytosolic adaptor for multiple cell wall enzymes” (Nature Communications, 2019).
Non-standard residues stand in square brackets, D forms with d. No end group written: not given here. fluorescein = fluorescein fluorescent label on the N-terminus; C(fluorescein) = cysteine carrying a fluorescein label; Nle = CCCC[C@H](N)C(=O)O

Tests used:
[1] = molecular target: Fluorescein-LmPBPA11-20 Arg12Ala (L. monocytogenes EGD-e); assay: fluorescence polarisation
[2] = molecular target: Fluorescein-LmPBPA11-20 Arg8Ala (L. monocytogenes EGD-e); assay: fluorescence polarisation
[3] = molecular target: Fluorescein-LmPBPA11-20 Arg8AlaSer16Arg (L. monocytogenes EGD-e); assay: fluorescence polarisation
[4] = molecular target: Fluorescein-LmPBPA11-20 wildtype (L. monocytogenes EGD-e); assay: fluorescence polarisation
[5] = molecular target: TAMRA-SpPBP2a23-45 wildtype (S. pneumoniae R6); assay: fluorescence polarisation
[6] = molecular target: Fluorescein-SpPBP2x1-29 (S. pneumoniae R6); assay: fluorescence polarisation
[7] = molecular target: TAMRA-SpPBP2a23-45 Arg31Lys (S. pneumoniae R6); assay: fluorescence polarisation
[8] = molecular target: TAMRA-SpPBP2a23-45 Arg31LysArg33Lys (S. pneumoniae R6); assay: fluorescence polarisation
[9] = molecular target: TAMRA-SpPBP2a23-45 Arg33Ala (S. pneumoniae R6); assay: fluorescence polarisation
[10] = molecular target: TAMRA-SpPBP2a23-45 Arg33Lys (S. pneumoniae R6); assay: fluorescence polarisation
[11] = molecular target: TAMRA-SpPBP2a23-45 Arg36Ala (S. pneumoniae R6); assay: fluorescence polarisation
[12] = molecular target: TAMRA-SpPBP2a23-45 Ser32Ala (S. pneumoniae R6); assay: fluorescence polarisation
BsGpsB [13] = molecular target: T1, BsGpsB (Bacillus subtilis, UniProt P0CI74); assay: BACTH interaction with BsGpsB; type: cell-based; conditions: E. coli BTH101, nutrient agar, 30 °C
T1 construct: new FP data concerning full length BsGpsB have now been added to; made in house; host or cells: E. coli BL21(DE3)

BsGpsB1-68 Tyr25Phe [14] = molecular target: T2, BsGpsB1-68 Tyr25Phe (B. subtilis, UniProt P0CI74 1-68, Tyr25Phe); assay: fluorescence polarisation; conditions: both partners purified
T2 construct: GpsB, Bacillus subtilis, residues 1-68 (N-terminal domain); also called BsGpsB1-68 Y25F; source: E. coli BL21(DE3), purified (Ni-NTA, thrombin removal of the His6-tag, SEC); not shown: His6, N-terminal, cleaved
T2 sequence (looked up): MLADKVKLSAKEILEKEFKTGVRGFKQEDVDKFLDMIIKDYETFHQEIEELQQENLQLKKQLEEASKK

BsGpsB1-68 Asp31Ala [15] = molecular target: T3, BsGpsB1-68 Asp31Ala (B. subtilis, UniProt P0CI74 1-68, Asp31Ala); assay: fluorescence polarisation; conditions: both partners purified
T3 construct: GpsB, Bacillus subtilis, residues 1-68 (N-terminal domain); also called BsGpsB1-68 D31A; source: E. coli BL21(DE3), purified (Ni-NTA, thrombin removal of the His6-tag, SEC); not shown: His6, N-terminal, cleaved
T3 sequence (looked up): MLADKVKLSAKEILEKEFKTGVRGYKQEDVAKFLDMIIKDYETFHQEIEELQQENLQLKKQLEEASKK

BsGpsB1-68 = molecular target: T4, BsGpsB1-68 (B. subtilis, UniProt P0CI74 1-68); assay: fluorescence polarisation; GpsB protein titrated into TAMRA- or fluorescein-labelled peptide; 10 mM Tris.HCl pH 8.0, 250 mM NaCl, 0.1% reduced Triton X-100; all data fitted to a 1:1 interaction model, Kd ± standard error; conditions: both partners purified
T4 construct: GpsB, Bacillus subtilis, residues 1-68 (N-terminal domain); also called N-terminal domain of B. subtilis GpsB; wildtype BsGpsB1-68; source: E. coli BL21(DE3), purified (Ni-NTA, thrombin removal of the His6-tag, SEC); not shown: His6, N-terminal, cleaved
T4 sequence (looked up): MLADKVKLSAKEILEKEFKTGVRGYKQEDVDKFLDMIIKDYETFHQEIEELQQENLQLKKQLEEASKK

BsGpsB1-68 Glu17Ala = molecular target: T5, BsGpsB1-68 Glu17Ala (B. subtilis, UniProt P0CI74 1-68, Glu17Ala); assay: as above; conditions: both partners purified
T5 construct: GpsB, Bacillus subtilis, residues 1-68 (N-terminal domain); also called BsGpsB1-68 E17A; source: E. coli BL21(DE3), purified (Ni-NTA, thrombin removal of the His6-tag, SEC); not shown: His6, N-terminal, cleaved
T5 sequence (looked up): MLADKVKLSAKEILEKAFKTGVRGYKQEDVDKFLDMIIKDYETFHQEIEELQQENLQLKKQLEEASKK

BsGpsB1-68 Tyr25Phe [16] = molecular target: T2, BsGpsB1-68 Tyr25Phe; assay: as above; conditions: both partners purified
BsGpsB1-68 Asp31Ala [17] = molecular target: T3, BsGpsB1-68 Asp31Ala; assay: as above; conditions: both partners purified
BsGpsB1-68 Asp35Ala = molecular target: T6, BsGpsB1-68 Asp35Ala (B. subtilis, UniProt P0CI74 1-68, Asp35Ala); assay: as above; conditions: both partners purified
T6 construct: GpsB, Bacillus subtilis, residues 1-68 (N-terminal domain); also called BsGpsB1-68 D35A; source: E. coli BL21(DE3), purified (Ni-NTA, thrombin removal of the His6-tag, SEC); not shown: His6, N-terminal, cleaved
T6 sequence (looked up): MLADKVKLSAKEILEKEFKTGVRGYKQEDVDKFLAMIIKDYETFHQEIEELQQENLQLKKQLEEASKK

BsGpsB [18] = molecular target: T7, BsGpsB (B. subtilis, UniProt P0CI74 1-98); assay: as above; conditions: both partners purified
T7 construct: GpsB, Bacillus subtilis, full-length protein; purification not described here; also called full-length B. subtilis GpsB
T7 sequence (looked up): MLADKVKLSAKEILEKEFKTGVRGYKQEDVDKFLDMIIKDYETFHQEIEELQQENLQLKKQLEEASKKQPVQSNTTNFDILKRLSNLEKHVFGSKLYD

[19] = molecular target: LmPBPA1_(1-20)^Arg12Ala (L. monocytogenes EGD-e); assay: fluorescence polarisation
[20] = molecular target: LmPBPA1_(1-20)^Arg8Ala (L. monocytogenes EGD-e); assay: fluorescence polarisation
[21] = molecular target: LmPBPA1_(1-20)^Arg8Ala,Ser16Arg (L. monocytogenes EGD-e); assay: fluorescence polarisation
[22] = molecular target: LmPBPA1_(1-20)^Tyr11Ala (L. monocytogenes EGD-e); assay: fluorescence polarisation
[23] = molecular target: Q10P-mutated LmPBPA1 peptide (taken as LmPBPA1_(1-20)^Gln10Pro) (L. monocytogenes EGD-e); assay: fluorescence polarisation
[24] = molecular target: T8, BsYpbE_(1-21), fluorescein-labelled (B. subtilis, UniProt P50731 1-21, fluorescein (position not given)); assay: fluorescence polarisation; conditions: both partners purified
T8 construct: also called 21-residue fragment of the cytoplasmic domain of BsYpbE; source: synthetic peptide
T8 peptide: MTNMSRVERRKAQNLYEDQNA

[25] = molecular target: T9, BsPBP1_(1-32), TAMRA-labelled at position 16 (B. subtilis, UniProt P39793 1-32, Ser16Cys, TAMRA (maleimide) at position 16); assay: fluorescence polarisation; GpsB protein titrated into fluorescently labelled peptide; 10 mM Tris.HCl pH 8.0, 250 mM NaCl, 0.1% reduced Triton X-100; fit to a 1:1 interaction model; conditions: both partners purified
T9 construct: PBP1, Bacillus subtilis, residues 1-32; also called BsPBPA1_(1-32); BsPBP1A_(1-32); source: E. coli, His-tagged MBP fusion purified (Ni-NTA), labelled, TEV-cleaved, ultrafiltration
T9 peptide (looked up): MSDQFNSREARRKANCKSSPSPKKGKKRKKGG

[26] = molecular target: T10, BsYrrS_(1-18), fluorescein-labelled (B. subtilis, UniProt O32031 1-18, also: fluorescein label, position not given here); assay: as above; conditions: both partners purified
T10 construct: YrrS, Bacillus subtilis, residues 1-18; also called entire cytoplasmic mini-domain of BsYrrS
T10 peptide (looked up): MSNNQSRYENRDKRRKAN

SpGpsB_(1-63) = molecular target: T11, SpGpsB_(1-63) (S. pneumoniae R6, UniProt Q8DR57 1-63); assay: fluorescence polarisation; conditions: both partners purified
T11 construct: GpsB, Streptococcus pneumoniae R6, residues 1-63 (stop codon in place of Pro64); also called N-terminal domain of SpGpsB; wildtype SpGpsB_(1-63); source: E. coli, purified (Ni-NTA, thrombin, ammonium sulphate precipitation, gel filtration)
T11 sequence (looked up): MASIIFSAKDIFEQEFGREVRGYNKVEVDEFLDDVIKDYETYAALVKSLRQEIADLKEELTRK

## BsGpsB1-68 Lys32Glu (from UniProt P0CI74 1-68) (domain or fragment)
[1]
  Kd: 800 µM
[2]
  Kd: > 3000 µM
[3]
  Kd: > 2000 µM
[4]
  Kd: 190 µM

## SpGpsB1-63 Asp33Ala (domain or fragment)
[5]
  Kd: > 3000 µM

## SpGpsB1-63 (domain or fragment)
[6]
  Kd: 370 µM
[7]
  Kd: 150 µM
[8]
  Kd: > 2000 µM
[9]
  Kd: 530 µM
[10]
  Kd: 360 µM
[11]
  Kd: 270 µM
[12]
  Kd: 210 µM

B1: BsYpbE: B. subtilis YpbE, LysM-domain membrane protein (protein, UniProt P50731 1-240, looked up)
Uncharacterized protein YpbE: MTNMSRVERRKAQNLYEDQNAALADDYVDDGESLPTRQSVKNQREQKKKQGKTKTPLFTVLAVIFVFVPVIVLVTLFYLKSHPDNHDDYEDVFIDSSQSKYEVVPKSEDKNDTADTKETALQKESKKEPEDSKPKEQTAADKKQTAVAEKEDSPNKEEATAAAASSSQSTVQQQEQPAEPVQNVPNRVVKHTVQKKETLYRISMKYYKSRTGEEKIRAYNHLNGNDVYTGQVLDIPLMDE
BsGpsB [13]
  BACTH interaction with BsGpsB: detected

## fluorescein-[Nle]TN[Nle]SRVERRKAQNLYEDQNA [Fluoroescein-BsYpbE1-21]
BsGpsB1-68 Tyr25Phe [14]
  Kd: > 500 µM
BsGpsB1-68 Asp31Ala [15]
  Kd: > 500 µM

B2: TAMRA-BsPBP11-32 wildtype (peptide)
peptide: GSMADQFNSREARRKANC(TAMRA‑maleimide)KSSPSPKKGKKRKKGG
notes: PBP1 (ponA), Bacillus subtilis, residues 1-32, cytoplasmic mini-domain; also called TAMRA-labelled BsPBP1 1-32 (Ser16Cys); 16-labelled peptide
BsGpsB1-68
  Kd: 120 µM
BsGpsB1-68 Glu17Ala
  Kd: > 1300 µM
BsGpsB1-68 Tyr25Phe [16]
  Kd: > 2000 µM
BsGpsB1-68 Asp31Ala [17]
  Kd: > 1900 µM
BsGpsB1-68 Asp35Ala
  Kd: > 2000 µM
BsGpsB [18]
  Kd: 160 µM

## MSNNQSRYENRDKRRKAN-{C(fluorescein)} [Fluoroescein-BsYrrS1-18]
BsGpsB1-68 Tyr25Phe [16]
  Kd: > 3000 µM
BsGpsB1-68 Asp31Ala [17]
  Kd: > 3000 µM

B3: BsGpsB_(1-68)^Lys32Glu (domain or fragment)
chain: MLADKVKLSAKEILEKEFKTGVRGYKQEDVDEFLDMIIKDYETFHQEIEELQQENLQLKKQLEEASKK
[19]
  fold reduction in affinity against wild type: 4 fold
[20]
  fold reduction in affinity against wild type: > 15 fold
[21]
  fold weaker affinity than wild type: > 10 fold
[22]
  fold reduction in affinity against wild type: 2 fold
[23]
  fold reduction in affinity against wild type: > 7 fold

B4: BsGpsB_(1-68)^Asp31Ala (domain or fragment, B. subtilis, UniProt P0CI74 1-68, looked up)
chain: MLADKVKLSAKEILEKEFKTGVRGYKQEDVAKFLDMIIKDYETFHQEIEELQQENLQLKKQLEEASKK
notes: GpsB, Bacillus subtilis, residues 1-68; also called BsGpsB^Asp31Ala; source: E. coli, purified (Ni-NTA, thrombin, size exclusion)
[24]
  fold reduction in affinity against wild type: ~40 fold
[25]
  fold reduction in affinity against wild type: > 8 fold
[26]
  fold reduction in affinity against wild type: 7 fold

B5: BsGpsB_(1-68)^Tyr25Phe (domain or fragment, B. subtilis, UniProt P0CI74 1-68, looked up)
chain: MLADKVKLSAKEILEKEFKTGVRGFKQEDVDKFLDMIIKDYETFHQEIEELQQENLQLKKQLEEASKK
notes: GpsB, Bacillus subtilis, residues 1-68; the making of this mutant is not described in the methods; also called BsGpsB^Tyr25Phe; source: E. coli, purified (Ni-NTA, thrombin, size exclusion)
[24]
  fold reduction in affinity against wild type: ~40 fold
[25]
  fold reduction in affinity against wild type: > 8 fold
[26]
  fold reduction in affinity against wild type: 7 fold

B6: BsYrrS: B. subtilis YrrS (protein, UniProt O32031 1-233, looked up)
Uncharacterized membrane …: MSNNQSRYENRDKRRKANLVLNILIAIVSILIVVVAANLFINSPSSKDVSKDSETAQKQESPASGKTEKKSDEDIKDSKKDTSDSEKDSEKSSDSDSKKDDSSSKKDDSDSDSSSDSAGDGLKDAKVTEGGSSSDVEKTYENPDWKAVGTEQTGEHAATYDSSSQDWAEMLKAISYATGVSTDNMTVLWLGNNGSPQDAKGKILDKATGNKYQVTITWVDEKGWKPTKVEKLK
BsGpsB [13]
  BACTH interaction with BsGpsB: detected

B7: SpPBP2a_(23-45), TAMRA-labelled (peptide)
peptide: DSDSTILRRSRSDRKKLAQVCPI
modifications: also: TAMRA (maleimide) label, site not given here
notes: source: E. coli, His-tagged MBP fusion purified (Ni-NTA), labelled, TEV-cleaved, ultrafiltration
SpGpsB_(1-63)
  Kd: 80 µM

B8: SpPBP2x_(1-29), fluorescently labelled (peptide)
peptide: GSGMKWTKRVIRYATKNRKSPAENRRRVGKSLCS
modifications: also: TAMRA or fluorescein maleimide label, which one and site not given here
notes: as for B7
SpGpsB_(1-63)
  binding result: binds
